Measurements from IntAct's records for PubMed 16362034.

B1: ETS-like protein pointed (Drosophila melanogaster (Fruit fly)), P51023 (parent)
chain: MELAICKTDLSATKFMLPPALPSSAAIGSSSAVASTASHFLDKAAHELFQLNAINGHLFKSPASSHLNSVGSPSILSQLNGIGNSGNHSGQVSTMRLKKNRKVTFLSSLVESKNIFIKEEPIHGCKDLCSLSDISDHEASLEVPTALPPLTPGTNRKVNEVLKASFASWEKEVQKCNITKDPREWTEEHVIYWLNWAKNEFSLVSMNLDPFYKMKGRAMVDLGKEKFLAITPPFTGDILWEHLDILQKDCEKPNEDIVHGNSFESATTASVCGSDHQVANYPNETHANSNNSSINSRLSMDYVTSAGNSDNKNFHRATPHSHNGYNTSNTHDRINNSTPPQQQQSQQPTVNGSGSASSNNNNSMLPPAVQQSNNENNNTSSSNTNNSSNNNNNSGGSNNSNAGSNNNNNNNNNINFMAAAAIFQHHLKEEPGTQNGNIGGYGGGSNSQNDPTDLSSYGLPAHLAAYGGGSGSGPTGGRSSGGGGDESDYHSTISAQDHQSQQSSGGNGSGGASGGSTGNSNGYLDSSSEFYGSYAGRNRFHDGYPPEFTPYDAQSFQSMGPQPTAMDQWGAAHAHQHPAAYMSTLGLDKGLLGGYTTQGGVPCFTGSGPIQLWQFLLELLLDKTCQSFISWTGDGWEFKLTDPDEVARRWGIRKNKPKMNYEKLSRGLRYYYDKNIIHKTAGKRYVYRFVCDLQNLVGHTPEELVAKYDLKIEKKDVD

Variants of: B1
Conditions: with erka_drome rl

effect of a mutation on the interaction | Variant
disrupting interaction | T151A
decreasing interaction | L228R
decreasing interaction | F234A
